This note sets out measurements from publication PMC10397247.

In one test the target is T1, 4H432-AA.
T1 chain: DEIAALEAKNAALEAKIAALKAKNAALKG
Description: two-hybrid library CCmax.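 Note: natural log of median RNA to DNA barcode read ratio; higher means stronger binding.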 As to conditions: mean of both orientations.

Another test concerns the target T2, 4H3629-AA.
T2 chain: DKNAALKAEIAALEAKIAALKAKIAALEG
Kind of test: two-hybrid library CCmax.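 Note: natural log of median RNA to DNA barcode read ratio; higher means stronger binding.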 The conditions noted are these: mean of both orientations.

The target of the next test is T3, 4H3094-AA.
T3 chain: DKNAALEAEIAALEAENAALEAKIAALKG
Kind of test: two-hybrid library CCmax.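 Note: natural log of median RNA to DNA barcode read ratio; higher means stronger binding.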 The conditions noted are these: mean of both orientations.

Another test addresses T4, 4H249-AA.
T4 chain: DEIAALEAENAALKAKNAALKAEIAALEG
Kind of test: two-hybrid library CCmax.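 Note: natural log of median RNA to DNA barcode read ratio; higher means stronger binding.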 The conditions noted are these: mean of both orientations.

A further test addresses T5, 4H3049-AA.
T5 chain: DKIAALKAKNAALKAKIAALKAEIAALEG
Kind of test: two-hybrid library CCmax.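 Note: natural log of median RNA to DNA barcode read ratio; higher means stronger binding.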 As to conditions: mean of both orientations.

The next test addresses T6, 4H341-AA.
T6 chain: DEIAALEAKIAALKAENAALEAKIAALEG
Kind of test: two-hybrid library CCmax.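 Note: natural log of median RNA to DNA barcode read ratio; higher means stronger binding.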 The conditions noted are these: mean of both orientations.

In another test the target is T7, 4H63-AA.
T7 chain: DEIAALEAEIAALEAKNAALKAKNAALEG
Kind of test: two-hybrid library CCmax. The conditions noted are these: mean of both orientations.

Another test has as its target T8, 4H3449-AA.
T8 chain: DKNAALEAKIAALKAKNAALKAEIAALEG
Description: two-hybrid library CCmax. As to conditions: mean of both orientations.

The target of the next test is T9, 4H2947-AA.
T9 chain: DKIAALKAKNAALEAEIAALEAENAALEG
Kind of test: two-hybrid library CCmax. The conditions noted are these: mean of both orientations.

Another test has as its target T10, 4H380-AA.
T10 chain: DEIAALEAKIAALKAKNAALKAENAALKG
Description: two-hybrid library CCmax. As to conditions: mean of both orientations.

In another test the target is T11, 4H2961-AA.
T11 chain: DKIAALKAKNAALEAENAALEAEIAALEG
Description: two-hybrid library CCmax. The conditions noted are these: mean of both orientations.

A further test addresses T12, 4H324-AA.
T12 chain: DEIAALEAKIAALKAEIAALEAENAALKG
Kind of test: two-hybrid library CCmax. The conditions noted are these: mean of both orientations.

For a further test, the target named is T13, 4H2621-AA.
T13 chain: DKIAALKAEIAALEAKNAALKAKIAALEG
Description: two-hybrid library CCmax. The conditions noted are these: mean of both orientations.

The next test concerns the target T14, 4H1878-AA.
T14 chain: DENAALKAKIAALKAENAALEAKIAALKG
Kind of test: two-hybrid library CCmax. As to conditions: mean of both orientations.

For the next test, the target named is T15, 4H3777-AA.
T15 chain: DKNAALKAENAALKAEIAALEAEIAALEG
Kind of test: two-hybrid library CCmax. The conditions noted are these: mean of both orientations.

Another test concerns the target T16, 4H2604-AA.
T16 chain: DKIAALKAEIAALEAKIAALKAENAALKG
Description: two-hybrid library CCmax. As to conditions: mean of both orientations.

The next test deals with T17, 4H446-AA.
T17 chain: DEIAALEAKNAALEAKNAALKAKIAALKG
Description: two-hybrid library CCmax. As to conditions: mean of both orientations.

In another test the target is T18, 4H3619-AA.
T18 chain: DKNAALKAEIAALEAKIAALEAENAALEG
Description: two-hybrid library CCmax. The conditions noted are these: mean of both orientations.

Another test concerns the target T19, 4H1593-AA.
T19 chain: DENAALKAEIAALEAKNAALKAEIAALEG
Description: two-hybrid library CCmax.

The next test concerns the target T20, 4H235-AA.
T20 chain: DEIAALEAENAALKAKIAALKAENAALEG
Kind of test: two-hybrid library CCmax. As to conditions: mean of both orientations.

The next test concerns the target T21, 4H2774-AA.
T21 chain: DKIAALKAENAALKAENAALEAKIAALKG
Kind of test: two-hybrid library CCmax. As to conditions: mean of both orientations.

A further test has as its target T22, 4H3915-AA.
T22 chain: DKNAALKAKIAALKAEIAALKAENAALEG
Kind of test: two-hybrid library CCmax. The conditions noted are these: mean of both orientations.

The next test deals with T23, 4H3974-AA.
T23 chain: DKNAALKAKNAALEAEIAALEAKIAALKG
Description: two-hybrid library CCmax. The conditions noted are these: mean of both orientations.

For another test, the target named is T24, 4H2580-AA.
T24 chain: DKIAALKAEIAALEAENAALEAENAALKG
Kind of test: two-hybrid library CCmax. As to conditions: mean of both orientations.

The target in a further test is T25, 4H2903-AA.
T25 chain: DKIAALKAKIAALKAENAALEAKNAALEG
Kind of test: two-hybrid library CCmax. As to conditions: mean of both orientations.

For another test, the target named is T26, 4H2760-AA.
T26 chain: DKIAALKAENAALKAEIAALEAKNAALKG
Kind of test: two-hybrid library CCmax. As to conditions: mean of both orientations.

A further test deals with T27, 4H3632-bA.
T27 chain: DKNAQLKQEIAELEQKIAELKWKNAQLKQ
Kind of test: two-hybrid library CCNG1.

The next test has as its target T28, 4H496-bA.
T28 chain: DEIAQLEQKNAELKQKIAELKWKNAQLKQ
Description: two-hybrid library CCNG1.

Another test addresses T29, 4H683-bH.
T29 chain: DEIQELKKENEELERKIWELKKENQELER
Kind of test: two-hybrid library CCNG1.

The target of another test is T30, 4H3926-bH.
T30 chain: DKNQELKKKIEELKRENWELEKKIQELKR
Description: two-hybrid library CCNG1.

The next test addresses T31, 4H2627-bH.
T31 chain: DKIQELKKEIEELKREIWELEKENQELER
Description: two-hybrid library CCNG1.

The target in a further test is T32, 4H2586-bH.
T32 chain: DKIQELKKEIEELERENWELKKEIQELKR
Description: two-hybrid library CCNG1.

For the next test, the target named is T33, 4H797-bH.
T33 chain: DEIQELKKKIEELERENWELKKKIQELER
Description: two-hybrid library CCNG1.

The next test addresses T34, 4H3427-bH.
T34 chain: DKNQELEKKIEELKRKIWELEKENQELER
Description: two-hybrid library CCNG1.

A further test has as its target T35, 4H953-bH.
T35 chain: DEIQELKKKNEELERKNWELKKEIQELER
Description: two-hybrid library CCNG1.

The next test addresses T36, 4H754-bH.
T36 chain: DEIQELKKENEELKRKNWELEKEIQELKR
Kind of test: two-hybrid library CCNG1.

The target of a further test is T37, 4H346-bH.
T37 chain: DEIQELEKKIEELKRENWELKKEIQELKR
Description: two-hybrid library CCNG1.

The target in the next test is T38, 4H780-bH.
T38 chain: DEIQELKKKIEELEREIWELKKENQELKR
Kind of test: two-hybrid library CCNG1.

The target in a further test is T39, 4H457-bH.
T39 chain: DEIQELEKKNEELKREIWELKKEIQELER
Description: two-hybrid library CCNG1.

A further test has as its target T40, 4H3112-bH.
T40 chain: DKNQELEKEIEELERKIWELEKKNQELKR
Description: two-hybrid library CCNG1.

The target of another test is T41, 4H3354-bH.
T41 chain: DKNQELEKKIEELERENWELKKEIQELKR
Kind of test: two-hybrid library CCNG1.

In a further test the target is T42, 4H575-bH.
T42 chain: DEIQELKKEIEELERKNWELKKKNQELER
Description: two-hybrid library CCNG1.

The target in a further test is T43, 4H855-bH.
T43 chain: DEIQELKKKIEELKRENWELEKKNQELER
Description: two-hybrid library CCNG1.

The target of the next test is T44, 4H4073-bH.
T44 chain: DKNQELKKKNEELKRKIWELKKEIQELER
Kind of test: two-hybrid library CCNG1.

For the next test, the target named is T45, 4H918-bH.
T45 chain: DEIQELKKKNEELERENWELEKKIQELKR
Kind of test: two-hybrid library CCNG1.

A further test deals with T46, 4H968-bH.
T46 chain: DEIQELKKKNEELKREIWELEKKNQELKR
Description: two-hybrid library CCNG1.

Another test addresses T47, 4H2702-bH.
T47 chain: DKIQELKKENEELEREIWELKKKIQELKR
Kind of test: two-hybrid library CCNG1.

The target of another test is T48, 4H370-bN.
T48 chain: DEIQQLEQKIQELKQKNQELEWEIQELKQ
Kind of test: two-hybrid library CCNG1.

The target in the next test is T49, 4H2673-bH.
T49 chain: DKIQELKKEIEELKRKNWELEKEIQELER
Kind of test: two-hybrid library CCNG1.

The target of another test is T50, 4H3010-bH.
T50 chain: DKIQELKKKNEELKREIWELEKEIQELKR
Kind of test: two-hybrid library CCNG1.

Regarding DENAALKAEIAALEAKNAALKAEIAALEG [4H1593-AA], the interaction score is -0.391 with 4H432-AA; -0.594 with 4H3629-AA; 1.88 with 4H3094-AA; -1.77 in the test with 4H249-AA; -0.661 with 4H3049-AA; 2.13 with 4H341-AA. Moreover, the interaction score is -1.97 in the test with 4H63-AA; -1.62 with 4H3449-AA; -1.37 with 4H2947-AA; -1.5 in the test with 4H380-AA; -1.89 with 4H2961-AA; -1.58 with 4H324-AA. For the same molecule, the interaction score is -0.899 in the test with 4H2621-AA; 2.3 with 4H1878-AA; -1.54 in the test with 4H3777-AA; 0.383 with 4H2604-AA; -1.84 in the test with 4H446-AA; -1.38 with 4H3619-AA. Also, the interaction score with 4H1593-AA is -1.04; with 4H235-AA, 0.603; with 4H2774-AA, -0.0172; with 4H3915-AA it was -1.62; with 4H3974-AA it was -1.15; in the test with 4H2580-AA, -0.97. In addition, the interaction score in the test with 4H2903-AA is -0.456; with 4H2760-AA it was -0.517.
Consider DKNAQLKQEIAELEQKIAELKWKNAQLKQ [4H3632-bA], for which the interaction score with 4H3632-bA stood at 1.23; with 4H496-bA it was 0.728.
For DKIQELKKEIEELERENWELKKEIQELKR [4H2586-bH], the interaction score with 4H683-bH was determined as 0.126; with 4H3926-bH it was 1.73; with 4H2627-bH, 0.688; with 4H2586-bH it was 1.34; with 4H797-bH, 0.65; in the test with 4H3427-bH, 0.762. Besides, the interaction score in the test with 4H953-bH was 0.313; with 4H754-bH it was -0.599; with 4H346-bH, 0.563; with 4H780-bH it was -1.12; in the test with 4H457-bH it was -0.749; in the test with 4H3112-bH, -1.96. In addition, the interaction score with 4H3354-bH was 0.825; with 4H575-bH, 0.499; with 4H855-bH it was 0.679; in the test with 4H4073-bH, 0.357; with 4H918-bH, -0.131; with 4H968-bH, -0.864. In addition, the interaction score with 4H2702-bH amounted to 0.0111; with 4H370-bN, 0.548; with 4H2673-bH, 1.76; in the test with 4H3010-bH, 0.779.
